Laboratory results taken from patent US6010856, “Assay systems and methods for measuring P38 map kinase, and modulators thereof” (The Scripps Research Institute).

What was measured:
[1] = target: MEF2C phosphorylated by p38 (UniProt Q06413-3 Q06413-3:1-441); experiment: EMSA; p38 phosphorylation did not reduce binding but decreased complex mobility; conditions: tags: in vitro translated then treated with recombinant p38; label: 32P
From the text: (§1) Members of the MEF2 family bind to conserved A/T-rich DNA sequences—CTA[A/T]_4TAG/A—found in the regulatory regions of many muscle-specific genes (Y. -T. Yu et al., Genes and Develop. 6, 1783 (1992). Binding of MEF2C to the consensus site can be detected by electrophoretic mobility-shift analysis (EMSA) (J. F. Martin et al., Proc. Natl. Acad. Sci. USA, 90, 5282 (1993); J. C. McDermott et al., Mol. Cell. Biol. 13, 2564 (1994); D. Leifer et al., Proc. Natl. Acad. Sci. USA 90, 11546 (1993)). To test whether the phosphorylation of MEF2C alters MEF2C binding to its consensus DNA binding site the mobility of the MEF2C-DNA probe complex formed by MEF2C before and after its treatment with wtp38 was compared (FIG. 3).
(§2) Binding of MEF2C to oligonucleotides containing the MEF2 consensus site determined by electrophoretic mobility-shift assay (EMSA). The oligonucleotide probe was double-stranded ^32P-labeled oligonucleotide containing the MEF2 consensus binding site (Oligonucleotides sequence, MEF2C: GATCGCT CTAAAAATAACCCTGTCG (SEQ ID NO: 1); MEF2Cmut: […] (SEQ ID NO: 2)) and the positions of free probe (F) and of bound probe (B_1 and B_2) are indicated by arrows. […]

MEF2C = MEF2C (UniProt Q06413-3 Q06413-3:1-441); experiment: EMSA; complexes B1 and B2; conditions: tags: in vitro translated from MEF2C cDNA; label: 32P
From the text: as §1, §2

MEF2C, sequence (Q06413 other isoform, or with tags, fused parts or gaps): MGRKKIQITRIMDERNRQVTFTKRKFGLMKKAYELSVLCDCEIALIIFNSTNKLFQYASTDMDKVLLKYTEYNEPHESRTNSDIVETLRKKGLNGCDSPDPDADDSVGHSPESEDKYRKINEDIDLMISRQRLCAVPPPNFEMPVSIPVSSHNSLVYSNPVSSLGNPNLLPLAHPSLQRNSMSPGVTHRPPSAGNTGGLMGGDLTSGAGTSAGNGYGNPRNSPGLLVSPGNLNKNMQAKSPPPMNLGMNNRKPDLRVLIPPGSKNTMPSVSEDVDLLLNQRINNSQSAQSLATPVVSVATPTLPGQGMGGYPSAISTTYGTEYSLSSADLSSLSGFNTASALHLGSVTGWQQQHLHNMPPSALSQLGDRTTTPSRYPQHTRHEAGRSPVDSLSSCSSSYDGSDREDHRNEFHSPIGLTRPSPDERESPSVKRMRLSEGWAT
MEF2C phosphorylated by p38, sequence (Q06413 other isoform, or with tags, fused parts or gaps): as above

B1: MEF2C consensus site probe (dsDNA)
DNA 1: GATCGCTCTAAAAATAACCCTGTCG
DNA 2: CGACAGGGTTATTTTTAGAGCGATC
- binding result [1]: binds
- binding result (MEF2C): binds
